T1: human GPRC5D amino-terminal peptide MYKDCIESTGDYFLLCDAEGPWGIILE-K(Biotin)-NH2, having an intramolecular … (human, C-terminal lysine carrying biotin, C-terminal amide; intramolecularly formed disulfide bond)
T1 construct: Peptide Institute synthetic peptide; also called amino-terminal peptide of biotinylated human GPRC5D (disulfide bond present)
T1 peptide: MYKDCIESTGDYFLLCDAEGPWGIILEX

T2: human GPRC5D amino-terminal peptide …(Biotin)-NH2, lacking an intramolecular disulfide bond (human, biotinylated carboxy terminus, C-terminal amide; no intramolecularly formed disulfide bond)
T2 construct: Sigma-Aldrich synthetic peptide; also called amino-terminal peptide of human GPRC5D (disulfide bond absent)
T2 peptide: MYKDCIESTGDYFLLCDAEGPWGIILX


Legend:
human GPRC5D [1] = molecular target: T3, human GPRC5D (human, UniProt Q9NZD1 1-345); experiment: flow cytometry on A4/Fuk cells (endogenous human GPRC5D), Penta-His Alexa Fluor 488 detection, rMFI = MFI minus sample without antibody
T3 construct: whole, on cells; also called hGPRC5D; G-protein coupled receptor family C group 5 member D
Protocol: Lymphoma cell line A4/Fuk cells (JCRB Cell Bank) were adjusted to an appropriate concentration with PBS containing 5% FBS. LIVE/DEAD Fixable Near-IR Dead Cell Stain Kit was added to the cells, which were then left standing at 4° C. for 30 minutes. The cells were washed twice with PBS containing 5% FBS, then adjusted to a concentration of 1×10⁶ cells/mL with PBS containing 5% FBS, inoculated in an amount of 100 μL/well to a 96-well U-bottomed microplate, and centrifuged to remove a supernatant. Each anti-GPRC5D-anti-CD3 bispecific molecule (C2037-C3E7034 to C3022-C3E7036 prepared in Example 12) diluted with PBS containing 5% FBS were added thereto in an amount of 100 μL/well, and the plate was left standing at 4° C. for 60 minutes. The cells were washed twice with PBS containing 5% FBS. Then, Penta-His Alexa Fluor 488 diluted with PBS containing 5% FBS was added thereto in an amount of 30 μL/well, and the plate was left standing at 4° C. for 30 minutes. The cells were washed twice with PBS containing 5% FBS and then resuspended in PBS containing 5% FBS, followed by detection using a flow cytometer (FACSCanto™ II). The data was analyzed using Flowjo. The mean fluorescence intensity (MFI) of Alexa Fluor 488 in a fraction free from dead cells was calculated. The MFI value of the antibody-unsupplemented sample was subtracted from the MFI value of the antibody-supplemented sample to calculate a relative value of MFI (rMFI).

cynomolgus monkey CD3 = molecular target: T4, cynomolgus monkey CD3 (cynomolgus monkey, UniProt Q95LI5 22-198); experiment: flow cytometry on cynomolgus monkey PBMC, Penta-His Alexa Fluor 488 detection, rMFI = MFI minus sample without antibody
T4 construct: whole, on cells; CD3 complex on cynomolgus monkey PBMC; also called cynomolgus monkey CD3 (PBMC); cynomolgus monkey CD3-expressing cells

human CD3 = molecular target: T5, human CD3 (human, UniProt P07766 23-207); experiment: flow cytometry on human PBMC (dead and CD19-positive cells excluded), Penta-His Alexa Fluor 488 detection, rMFI = MFI minus sample without antibody
T5 construct: CD3 complex on human PBMC; also called human CD3 (PBMC); human CD3-expressing cells
Protocol: Commercially available human PBMC (Cellular Technology Limited) was adjusted to an appropriate concentration with PBS containing 5% FBS. LIVE/DEAD Fixable Near-IR Dead Cell Stain Kit (Thermo Fisher Scientific Inc.) and an anti-CD19 antibody (Beckman Coulter Inc.) were added to the cells, which were then left standing at 4° C. for 30 minutes. The cells were washed twice with PBS containing 5% FBS, then adjusted to a concentration of 1×10⁶ cells/mL with PBS containing 5% FBS, inoculated in an amount of 100 μL/well to a 96-well U-bottomed microplate, and centrifuged to remove a supernatant. Each anti-GPRC5D-anti-CD3 bispecific molecule (C2037-C3E7034 to C3022-C3E7036 prepared in Example 12) diluted with PBS containing 5% FBS were added thereto in an amount of 100 μL/well, and the plate was left standing at 4° C. for 60 minutes. The cells were washed twice with PBS containing 5% FBS. Then, Penta-His Alexa Fluor 488 (Qiagen N.V.) diluted with PBS containing 5% FBS was added thereto in an amount of 30 μL/well, and the plate was left standing at 4° C. for 30 minutes. […] The data was analyzed using Flowjo (Tree Star, Inc.). The mean fluorescence intensity (MFI) of Alexa Fluor 488 in a fraction free from dead cells and CD19-positive cells was calculated. […]

human GPRC5D [2] = molecular target: T3, human GPRC5D; experiment: flow cytometry, KMS-34 cells
[3] = molecular target: T1, human GPRC5D amino-terminal peptide …; experiment: ELISA, immobilised biotinylated peptide
Text: (§1) Epitopes bound by the obtained rat anti-GPRC5D antibodies (2A4, 2B1, and 7B4) were identified using a human GPRC5D amino-terminal peptide […](Biotin)-NH₂ (Sigma-Aldrich Corp.) (SEQ ID NO: 1 of the Sequence Listing; FIG. 2) having a biotinylated carboxy-terminal peptide and lacking an intramolecularly formed disulfide bond, and a human GPRC5D amino-terminal peptide […]-K(Biotin)-NH₂ (Peptide Institute, Inc.) (SEQ ID NO: 2 of the Sequence Listing; FIG. 3) having a lysine-containing biotinylated carboxy terminus and having an intramolecularly formed disulfide bond. Each peptide diluted with PBS was added to Nunc Immobilizer (Thermo Fisher Scientific Inc.), and the plate was left standing at room temperature for 1 hour. After washing three times with PBST, […] containing 1% BSA was added thereto, and the plate was left standing at room temperature for 1 hour. After washing three times with PBST, each rat anti-GPRC5D antibody (2A4, 2B1, and 7B4) prepared in Example 1)-7 and diluted to 0.1 ng/mL to 1 μg/mL with PBS was added thereto, and the plate was left standing at room temperature for 1 hour. After washing three times with PBST, Anti-Rat IgG, HRP-Linked Whole Ab Goat (GE Healthcare Bio-Sciences Corp.) diluted 500-fold with PBS was added thereto, and the plate was left standing at room temperature for 1 hour. After washing three times with PBST, SuperSignal™ ELISA Pico Chemiluminescent Substrate (Thermo Fisher Scientific Inc.) was added thereto, and the luminescence was measured using a plate reader (ENVISION; PerkinElmer, Inc.).

[4] = molecular target: T2, human GPRC5D amino-terminal peptide …; experiment: ELISA, immobilised biotinylated peptide
Text: as §1

human GPRC5D [5] = molecular target: T3, human GPRC5D; experiment: flow cytometry, KHM-1B cells
Protocol: Human multiple myeloma cell line KHM-1B cells (JCRB Cell Bank) expressing GPRC5D were adjusted to a concentration of 5×10⁶ cells/mL with PBS containing 5% FBS, inoculated in an amount of 100 μL/well to a 96-well U-bottomed microplate, and centrifuged to remove a supernatant. Each rat anti-GPRC5D antibody (2A4, 2B1, and 7B4) adjusted to 0.32 ng/mL to 10 μg/mL in Example 1)-7 was added thereto in an amount of 100 μL/well, and the plate was left standing at 4° C. for 1 hour. The cells were washed twice with PBS containing 5% FBS. Then, PE Goat Anti-Rat Ab (Becton, Dickinson and Company) diluted 100-fold with PBS containing 5% FBS was added thereto at a concentration of 100 μL/well, and the plate was left standing at 4° C. for 1 hour. The cells were washed twice with PBS containing 5% FBS and then resuspended in PBS containing 5% FBS, followed by detection using a flow cytometer (FACSCanto™ II; Becton, Dickinson and Company). The data was analyzed using Flowjo (Tree Star, Inc.). The PE fluorescence intensity of the cell fraction was plotted to a histogram, and the mean fluorescence intensity (MFI) was calculated.

T5 sequence (P07766 23-207 limits assumed): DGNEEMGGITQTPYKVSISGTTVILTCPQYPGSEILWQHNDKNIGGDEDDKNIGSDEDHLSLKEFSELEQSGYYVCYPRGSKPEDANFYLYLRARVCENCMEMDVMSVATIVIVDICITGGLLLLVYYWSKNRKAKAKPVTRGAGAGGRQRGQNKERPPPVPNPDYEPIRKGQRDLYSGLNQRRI
T4 sequence (Q95LI5 22-198): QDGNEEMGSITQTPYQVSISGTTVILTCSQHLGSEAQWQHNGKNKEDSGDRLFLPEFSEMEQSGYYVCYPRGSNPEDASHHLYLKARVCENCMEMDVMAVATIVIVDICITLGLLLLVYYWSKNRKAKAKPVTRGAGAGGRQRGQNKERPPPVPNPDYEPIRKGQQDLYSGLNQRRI

Binder	binding result (human GPRC5D [1])	EC50 (read off the curve) (cynomolgus monkey CD3)	EC50 (read off the curve) (human CD3)	Kd (human GPRC5D [2])	MFI (max) (human GPRC5D [2])	binding result [3]	binding result [4]	Kd (human GPRC5D [5])	MFI (max) (human GPRC5D [5])
anti-GPRC5D-anti-CD3 bispecific molecule C3022-C3E7034 (bispecific antibody, Tandem scFv) scFv: GQVQLVQSGAEVKKPGASVKVSCKASGYTFTGYYMHWVRQAPGQGLEWMGRINPNSGGTNYAQKFQGRVTMTRDTSISTAYMELSGLRSDDTAVYYCASGSVRHPWGQGTLVTVSSGGGGSGGGGSGGGGSQPVLTQPPSASGTPGQRVTISCSGSRSNIGGNIVSWYQQFPGTAPRLLTYADNQRPSGVPDRFSGSKSGTSASLAISGLQSEDEADYYCAAWDDSLNGVVFGGGTKLTVLGGGGSEVQLVESGGGLVQPGGSLRLSCAASGVTFNYYGMSWIRQAPGKGLEWVASITNSGGRIYYPDSVKGRFTISRENTQKTLYLQMNSLRAEDTAVYYCTLDGRDGWVAYWGQGTLVTVSSGGGGSGGGGSGGGGSNFMLTQPHSVSESPGKTVTISCKRNTGNIGSNYVNWYQQHEGSSPTTIIYRDDKRPDGVSDRFSGSIDRSSKSASLTISNLKTEDEADYFCQSYSSGFIFGGGTKLTVLGAAAGAGGDYKDDDDKGAAAHHHHHH	binds	~20 nM	~0.3 nM						
rat anti-GPRC5D antibody 2A4 (antibody, V domains shown, Rat IgG2b, kappa chain) VH: QVQLQQSGAELAKPGTSVKLSCKASGYTFTSYYIYWVKQRPGQGLEWIGYVYPGYGGTYYSDKFKGKATFTADTSSSTAYMLLGSLTPEDSAYYFCARRKGIIRGPGYFDYWGQGVMVTVSS VL: DIQMTQSPASLSASLGETVSIECLASEGISNSLAWYQQKPGKSPQLLIYGASSLQDGVPSRFSGSGSGTQYSLKISGMQPEDEGLYYCQQGYKYPPTFGGGTKLELK				1.4 nM	2060	no binding (tested: 0.1 ng/mL to 1 µg/mL)	no binding (tested: 0.1 ng/mL to 1 µg/mL)	0.5 nM	1150
anti-GPRC5D-anti-CD3 bispecific molecule C3048-C3E7034 (bispecific antibody, Tandem scFv) scFv: GQVQLVQSGAEVKKPGSSVKVSCKASGGTFSRYAISWVRQAPGQGLEWMGGIIPIFGTANYAQKFQGRVTITADQSTRTAYMDLGRLRSEDTAVYYCALEGFRDSLKRNPFDIWGQGTMVTVSSGGGGSGGGGSGGGGSQSVVTQPPSVSAAPGQKVTISCSGGTTNIGSNYVSWYQQLPGTAPKFLMYENNKRPSGIPDRFSGSKSGTSATLAITGLQTGDEATYYCSTWDSSLNTGLFGGGTKLTVLGGGGSEVQLVESGGGLVQPGGSLRLSCAASGVTFNYYGMSWIRQAPGKGLEWVASITNSGGRIYYPDSVKGRFTISRENTQKTLYLQMNSLRAEDTAVYYCTLDGRDGWVAYWGQGTLVTVSSGGGGSGGGGSGGGGSNFMLTQPHSVSESPGKTVTISCKRNTGNIGSNYVNWYQQHEGSSPTTIIYRDDKRPDGVSDRFSGSIDRSSKSASLTISNLKTEDEADYFCQSYSSGFIFGGGTKLTVLGAAAGAGGDYKDDDDKGAAAHHHHHH	binds		~0.4 nM						
rat anti-GPRC5D antibody 7B4 (antibody, V domains shown, Rat IgG2b, kappa chain) VH: EIHLQESGPGLVKPSQSLSLTCSVTGYTITSGYDWSWIRKFPGNKMEWMAYMSYRGSTNYNPSLKSRISITRDTSKNQFFLQLNSVTTEDTATYYCALTRTYWYNYYYVLDAWGQGASVTVSS VL: DIQMTQSPSFLSASVGERVTLSCKASQNINKYLDWYQQKLGEPPKLLIYNTNNLHTGIPSRFSGSGSGTDYTLTISGLQPEDVATYFCLQRNSWYTFGAGTKLELK				2.1 nM	4470	no binding (tested: 0.1 ng/mL to 1 µg/mL)	no binding (tested: 0.1 ng/mL to 1 µg/mL)	1.3 nM	2490
